Data on one protein can be found in PMC6390181, “Ovalbumin Epitope [sequence] Self-Assembles into a Supramolecular Hydrogel” (Scientific Reports, 2019).

This data set concerns the molecule itself. Put plainly: hydrogel formation (visual inspection, rheology); purified peptide dissolved in Millipore water at 0.5% or 1% (w/v); room temperature; gel seen at once (1%) or after overnight incubation (0.5%); rheology after 24 h; the analogue was followed for 72 h.

B1: OVA257-264 octapeptide SIINFEKL (peptide)
peptide: SIINFEKL
notes: ovalbumin (OVA), residues 257-264; Assembles into nanofibrils and a hydrogel; the number of peptides in an assembly is not defined; source: synthetic peptide (Fmoc-SPPS, purified by RP-HPLC)
In the case of B1, the binding result is “binds”.
